The nanobody polyreactivity screen of Harvey et al. (2022)

Assay: yeast display, Sf9 membrane polyspecificity reagent, FACS + sequencing; frameworks hold sequencing errors
In short: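 Nanobodies came from a synthetic yeast display library in Saccharomyces cerevisiae BJ5465, induced with galactose for 36–48 hours and stained for 1 hour at 4 °C with 10% biotinylated, detergent-solubilized Sf9 membrane reagent. Cells were enriched on streptavidin microbeads and then FACS-sorted, with low and high (top ~1%) gates set on anti-HA fluorescence for expression and streptavidin fluorescence for reagent binding. Each polyreactivity label reflects the gate a clone came from. Genes were amplified by colony PCR, sequenced by MiSeq 2 × 250 and filtered by CDR length.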

Sequence	polyreactivity (PSR sort gate)
QVQLVESGGGLVQAGGSLRLSCAASGITFGYYAMGWYRPAPGKERELVAAITYSGGSTYYADSVKGRFTISRDNAKNTVYLQMNCLKPEDTAVYDCAAERYVRVWVAGILHYDYWGQGTQVTVSS	low polyreactivity
QVQLVESGGGLVQAGGSLRLSCAASGITFGYYAMGWYRQAPGKERELVAAINWSGGSTYYADSVKGRFTISRDNAKNTVYLQMNSLKPEDTAVYYCNARPFNRYYREYDYWGQGTQVTVSS	high polyreactivity
QVQLVESGGGLVQAGGSLRLSCAASGITFGYYAMGWYRQAPGKERELVAAIRSSGGSTYYADSVKGRFTISRDNAKNTVYLQMNSLKPEDTAVYYCNARYRKSSRPGYEPYERYYWGQGTQVTVSS	high polyreactivity
QVQLVESGGGLVQAGGSLRLSCAASGITFGYYAMGWYRQAPGKERELVAAISSSGGSTYYADSVKGRFTISRDNAKNTVYLQMNSLKPEDTAVYFCAARYRKYSWYDYWGQGTQVTVSS	high polyreactivity
QVQLVESGGGLVQAGGSLRLSCAASGITFGYYAMGWYRQAPGKERELVAAITWSGGSTYYADSVKGRFTISRDNAKNTVYLQMNSLKPEDTAVYYCNADRFGRAHVYPEFDYWGQGTQVTVSS	low polyreactivity
QVQLVESGGGLVQAGGSLRLSCAASGITFHEYAMVWYRQAPGKERELVAAISASGGTTYYADSVKGRFTISRDNAKNTVYLQMNSLKPEDTAVYYCAALPLYITEYGYWGQGTQVTVSS	high polyreactivity
QVQLVESGGGLVQAGGSLRLSCAASGITFHGNTMGWYRQAPGKERELVAGISTSGSITYYADSVKGRFTISRDNAKKTVYLQMNSLKPEDTAVYYCAAVSHATQIAERGYWGQGTQVTVSS	low polyreactivity
QVQLVESGGGLVQAGGSLRLSCAASGITFHGYAMGWYRQAPGTERELVAAISDSGSSTYYADSVKGRFTISRDNAKNTVYLQMNSLKPEDTAVYYCAAVSGFYDQYDYWGQGTQVTVSS	low polyreactivity
QVQLVESGGGLVQAGGSLRLSCAASGITFHVYAMGWYRQAPGKEREFVASISWSGGSTYYADSVKGRFTISRDNAKNTVYLQMNSLKPEDTAVYYALLTVLSAVPYSVRYDYWGQGTQVTVSS	high polyreactivity
QVQLVESGGGLVQAGGSLRLSCAASGITFIPNAMGWYRQAPGKERELVAAISISGGRTYYADSVKGRFTISRDNAKNPVYLQMNSLKPEDTAVYYCAADRADFFVIRTIDPYDYWGQGTQVTVSS	low polyreactivity
QVQLVESGGGLVQAGGSLRLSCAASGITFIYYAMGWYRQAPGKEREFVAAISSRDDSTYYADSVKGRFTISRDNAKNTVYLQMNSLKPEDTAVYYCAAASSRRSAIKYGYWGQGTQVTVSS	high polyreactivity
QVQLVESGGGLVQAGGSLRLSCAASGITFIYYAMGWYRQAPGKEREFVAAITFRDGDTYYADSVKGRFTISRDNAKNTVYLQMNSLKPEDTAVYYCADTYWVYYYYPGYDYWGQGTQVTVSS	low polyreactivity
QVQLVESGGGLVQAGGSLRLSCAASGITFIYYAMGWYRQAPGKERELVAAISKSGGRTYYADSVKGRFTISRDNAKNTVYLQMNSLKPEDTAVYYCNKLVGDDTALYDYWGQGTQVTVSS	high polyreactivity
QVQLVESGGGLVQAGGSLRLSCAASGITFKGNAMGWYRQAPGKERELVAVITWSGGSTYYADSVKGRFTISRDNAKNTVYLQMNSLKPEDTAVYYCAKPWKYGDSQYDYWGQGTQVTVSS	low polyreactivity
QVQLVESGGGLVQAGGSLRLSCAASGITFKLYAIGWYRQAPGKERELVATINRGSSTYYADSVKGRFTISRDNAKNTVYLQMNSLKPEDTAVYYCAADNVRKWHKMDYWGQGTQVTVSS	high polyreactivity
QVQLVESGGGLVQAGGSLRLSCAASGITFKSYTMGWYRQAPGKERELVAAITASGGTTRYADSVKGRFTISRDNAKNTVYLQMNSLKREDTAVYYCNALPFRYGKRRGYWGQGTQVTVSS	low polyreactivity
QVQLVESGGGLVQAGGSLRLSCAASGITFKYYAMGWYRQAPGKERELVAAIRGGRTYYADSVKGRFTISRDNAKNTVYLQMNSLKPEDTAVYYCNARYYQSGIKYNYWGQGTQVTVSS	high polyreactivity
QVQLVESGGGLVQAGGSLRLSCAASGITFKYYTMGWYRPAPGKERELVAAITSRAGRTYADSVKGRFTISRDNAKNTVYLQMNSLKPEDTAVYYCDKKWRGNTYLYDYWGQGTQVTVSS	high polyreactivity
QVQLVESGGGLVQAGGSLRLSCAASGITFKYYTMGWYRQAPGKERELVAAISRGGSTNYADSVKGRFTISRDNAKNTVYLQMNSLKPEDTAVYYCAVDVPEFWWYRVIYDGYYWGQGTQVTVSS	high polyreactivity
QVQLVESGGGLVQAGGSLRLSCAASGITFKYYTMGWYRQAPGKERELVASINNDGSTYYADSVKGRFTISRDNAKNTVYFQMNSLKPEDTAVYYCAASGYGWFWYDYWGHGTQVTVSS	high polyreactivity
QVQLVESGGGLVQAGGSLRLSCAASGITFLPTAMGWYRQAPGKERELVAAITWRGGSTYYADAVKGRFTISRDHAKNTVYLQMNSLKREDTAVYYCGATGWQYVYYNYLWLKGGYWGQGTQVSVSS	high polyreactivity
QVQLVESGGGLVQAGGSLRLSCAASGITFLTYTMGWYRQAPGKERELVAAISRSGGRTYYADSVKGRFTISRDNAKNTVYLQMNSLKPEDTAVYYCAAVSANQDFDYWGQGTQVTVSS	high polyreactivity

Sequence	polyreactivity (PSR sort gate)
QVQLVESGGGLVQAGGSLRLSCAASGITFLYYAMGWYRQAPGKERELVAAISGGGASTYYADSVKGRFTISRDNAKNTVYLQKNSLKPEDTAVYYCAAGYRDFFRARFGYWGQGTQVTVSS	high polyreactivity
QVQLVESGGGLVQAGGSLRLSCAASGITFNSYAMGWYRQAPGKERELVASITERGDSTYYADSVKGRFTLSRDNAKNTVYLQMNSLKPEDTGVYYCAAAEHLTRPSSPTQDGDHWGQGTQVTVSS	low polyreactivity
QVQLVESGGGLVQAGGSLRLSCAASGITFNSYRMVWYRQAPVKERELVAAISGSGSSTYYADSVKGRFTISRDNAKNTVYLQMNSLKPEDTGVYYCADVSGKNVDFVWVLAYPRLDYWGQGTQVTVSS	low polyreactivity
QVQLVESGGGLVQAGGSLRLSCAASGITFNVYAMAWYRQAPGKERELVATITGSGGSTYYADSVKGRFTISRDNAKNTVYLQMNSQKPEDTAVYYCNAYYYFWGQGSQVTVSS	low polyreactivity
QVQLVESGGGLVQAGGSLRLSCAASGITFNYYAMGWYRQAPGKEREFVAAITRSGGRTYYADSVKGRFTISRDNAKNTVYLQMNSLKPEDTAVYYCAAGYYILYIWKFDYWGQGTQVTVSS	high polyreactivity
QVQLVESGGGLVQAGGSLRLSCAASGITFNYYAMGWYRQAPGKERELVAVISSSGGRTYYADSVKGRFTISRDNAKNTVYFQMNSLKPEDTAVYYCGAGCSVAFYYWGQGTQVTVSS	high polyreactivity
QVQLVESGGGLVQAGGSLRLSCAASGITFNYYTMVWYRQAPGKERELVARITISGGSTYYADSVKGRFTISRDNAKNTVDFQMYSLKPEDTAVYYCNVRLYGYRHDYWGQGTQVTVSS	high polyreactivity
QVQLVESGGGLVQAGGSLRLSCAASGITFPANAMGWYRQAPGKERELVAAISTSGGSTYYADSVKGRFTISRDNAKNTVYLQMNSLKPEDTAVYYCAATIYPYYSLYSHYYWGQCTQVTVSS	high polyreactivity
QVQLVESGGGLVQAGGSLRLSCAASGITFPDYDMGWYRQAPGKERELVAAITYRSGSTYYADSVKGRFTISRDNAKNTVYLQMNSLKPEDTAVYYCAATVRGVGYRYYYWGQGTQVTVSS	high polyreactivity
QVQLVESGGGLVQAGGSLRLSCAASGITFPFYAMGWYRQAPGKERELVAGITSGGSTYYADSVKGRFTISRDNAKNTVYLQMNSLKPEDTAVYYCAAPFYRQSLIEYDFWGQGTQVTVSS	high polyreactivity
QVQLVESGGGLVQAGGSLRLSCAASGITFPGNVMGWYRQAPGKERELVAAISTSGGSTYYADSVKGRFTISRDNAKNTVYLQMNSLKPEDTAVYYCARQYIRSSYGYWGQGTQVTVSS	low polyreactivity
QVQLVESGGGLVQAGGSLRLSCAASGITFPGYAMGWYRQAPGKERELVAAIDRSGDGTYYADSVKGRFTISRDNAKNTVYLQMNSLKPEDPAVYYCAKDNYPNHSTVLAVIYDYWGQGTQVTVSS	low polyreactivity
QVQLVESGGGLVQAGGSLRLSCAASGITFPGYAMGWYTQAPGKERELVAVIRKSGTSTYYADSVKGRFTISRDNAKNTVYLQMNSLKPEDTAVYYCAAGGPSTLDDYWGQGTQVTVSS	low polyreactivity
QVQLVESGGGLVQAGGSLRLSCAASGITFPLYVLGWYRQAPGKDRELVAAISASGGSTYADSVKGRFTISRDNAKNTVYFQMNSLKTEVTAVYYCNADVYVGYEYDYWGQGTQVTVSS	low polyreactivity
QVQLVESGGGLVQAGGSLRLSCAASGITFPRNAMGWYRQAPGKERELVAAISARGGNTYYADSVKGRFTISRDNSKNNVYLQMNSLKPEDTAVYFCNALGSSYSEPSEYDYWGQGTQVTVSS	low polyreactivity
QVQLVESGGGLVQAGGSLRLSCAASGITFPRYAMGGYRPAPGKERELVATITRTGRTNYADSVKGRFTISRDNAKNTVYLQKNSLKPEDTPVYYCAARNRRERKGKMDYWGQGTQVTVSS	high polyreactivity
QVQLVESGGGLVQAGGSLRLSCAASGITFPWYAMGWYRQAPGKERELVAAISSDADTYYADSVKGRFTISRDNAKNTVYLQMISLKPEDTAVYYCAAETFDYSRGYTAMGYWGQGTQVTVSS	high polyreactivity
QVQLVESGGGLVQAGGSLRLSCAASGITFPYYAMGWDRQAPGKERELVAAISSSGGSTYYADSVKGRFTISRDNAKNTVYLQMNSLKPEDTAVYYCAAQRYINYDYWGQGTQVTVSS	high polyreactivity
QVQLVESGGGLVQAGGSLRLSCAASGITFPYYAMGWYRQAPGKERELVAAISSGGSTNYADSVKGRFTISRDNAKNTVYLQMNSLKPEDTAVYYCNADVRSYFYDYWGQGTQVTVSS	low polyreactivity
QVQLVESGGGLVQAGGSLRLSCAASGITFQLYAMGWYRQAPGKERELVAAIDASGGITNYADSVKGRFTISRDNAKNTVYLQMNSLKPEDTAVYYCASFFKLRYRYQFWRYGFGYWGQGTQVTVSS	high polyreactivity
QVQLVESGGGLVQAGGSLRLSCAASGITFQWYTMGWYRQAPGKERELVATISSGGSTNYADSVKGRFTISRDNAKNTVYLQMNSLKPEDTPVYYCAAYDYISSTYFLDEYWGQGTQVTVSS	low polyreactivity
